These results are taken from the DeepSol protein solubility set.

A short description of this series: soluble on expression in E. coli; label from the status in PepcDB or PDB records.
For the sequence “MNLHEYQAKQLFARYGLPAPVGYACTTPREAEEAASKIGAGPWVVKCQVHAGGRGKAGGVKVVNSKEDIRAFAENWLGKRLVTYQTDANGQPVNQILVEAATDIAKELYLGAVVDRSSRRVVFMASTEGGVEIEKVAEETPHLIHKVALDPLTGPMPYQGRELAFKLGLEGKLVQQFTKIFMGLATIFLERDLALIAINPLVITKQGDLICLDGKLGADGNALFRQPDLREMRDQSQEDPREAQAAQWELNYVALDGNIGCMVNGAGLAMGTMDIVKLHGGEPANFLDVGGGATKERVTEAFKIILSDDKVKAVLVNIFGGIVRCDLIADGIIGAVAEVGVNVPVVVRLEGNNAELGAKKLADSGLNIIAAKGLTDAAQQVVAAVEGK”, the “soluble on expression in E. coli” value is “soluble”.

As to “AESGFRQHITANGESGFKAEPDRYHLYLSYACPWACRTLIMRKLKGLEKIISVSFSDPVMGKNGWSYGESGNETADHINHIHYLKELYLVARKDYTGRVTVPVLWDKKKKTIVNNESSEIMRMLNSEFNAFSSTDHDYYPKQWRQKIDEINQLVYENINN”, the “soluble on expression in E. coli” value is recorded as “not soluble”.

For “MQDSVLGVMQPDGFQDIVAARFREARAGGLISTVFQIEIDDHTSLVERHGQRAAEVISTTSADRIAAVLRDRDAVTHLDTFKYAVCLEPVRQMDLELCIQLAGRIQAALEEPIALDATAVCITSSVGFCQQTKVLSRSGEAWLAAAGHALREAHLNGPGAIRAYSLEHHHHHH”, the “soluble on expression in E. coli” value is recorded as “not soluble”.

On to “GPGSMPPSHTLLNRRGQQFSSRMHVGAKRKRVEDNASPVSSLYRPLCRGLSTRGSGASAVSCPSVVVILEKAGLLLGREGVVDAYDRAGSTTIANASLRDVRPDIVHQCLLALFDSGLAQEQRQLRVFINLFSRGGRTVEVSPSLRPPRTLRRFKGLVAALLRDGVVRSQDGEVLLQVLPGSLAPVLPYGAEVIGLTNAHSAPVRTPTQLARAALENPVDDKLQGGLKGVAGFFCICCSEDGSLDGVDYVTQQVCLSAYPMTAHVMCSRLCEGFSRAAATGNR”, for which the “soluble on expression in E. coli” value is listed as “not soluble”.

Turning to “MGSDKIHHHHHHMITDENKKLAQWAMDYALKNGCQAAKVLLYSSSNTSFELRDAKMDRLQQASEGGLSLSLYVDGRYGSISTNRLNRKELETFIKNGIDSTRYLAKDEARVLADPSRYYKGGKPDLKLYDAKFASLNPDDKIEMAKAVAEEALGKDERIISVGSSYGDGEDFAYRLISNGFEGETKSTWYSLSADITIRGEGEARPSAYWYESSLYMNDLIKKGIGQKALERVLRKLGQKKVQSGKYTMVVDPMNSSRLLSPMISALNGSALQQKNSFLLNKLNEKIASDRLTLTDEPHLVKASGARYFDNEGIATERRSIFDKGVLNTYFIDTYNAKKMGVDPTISGSSILVMETGDKNLDGLIAGVEKGILVTGFNGGNNNSSTGDFSYGIEGFLIENGKLTQPVSEMNVTGNLITLWNSLVATGNDPRLNSSWRIPSLVFEGVDFSGL”, the “soluble on expression in E. coli” value was “soluble”.

Turning to “MNDKIQKLIKKLAKECQKEDVALSLAAIDLEGEMAISQVGKGTIVAIAAHSQYTLTKEKLEQSDCDCPKHRLLKEMYGTETETTTKNTHTFVTDDPNDLMDILSKIFRGEFK”, the “soluble on expression in E. coli” value is on record as “not soluble”.

On to “MSDYQVLLYYKYTTIDDPETFAKEHLAACKEMELKGRILVATEGINGTVSGTVEATNKYMDYMANDARFADMVFKIDAADAHAFKKMHVRPRAEIVSLSLEEDVNPLEVTGTYLEPSEFREALLDEDTVILDARNDYEFDIGHFRGAVRPDIQNFRELPGWIEDNREQLADKKIVTYCTGGIRCEKFSGWLKTAGFDDVSQLHGGIATYGKNEETKGELWDGQMYVFDERIAVPINQVNPTIVGKDYFDGTPCERYINCANPYCNKQILASIENEKKYLRSCSHDCRVHPANLYTKNLSKEEFTERLQAIDETLPEMVQ”, for which the “soluble on expression in E. coli” value was “not soluble”.

For the sequence “MGSDKIHHHHHHMRYFARIAELGSFTRAASELGVAQPALSLHVRALEDQLGLQLLNRTSRGVVVTEAGQTLLVHAQAILRAVEQAEAATREQAKYPSGDVSLGILSSLSPILSIPVLEACDRRFPKIRLTISEGDSQTLRTATDIHAHDLAVNLLDVAKPTAVPLFDERLYAVGPLNAFTQRQNDLPLREALSLPLIMPSQRHGIRILLEKQALILGQKINIVRVIEGVASTKAAIRAGLGLTILGRGAVYADHQAGQLSVIPLRAPELFRRLVLDMPVNHPPTKAVLEVRQILMEVIKRLGGEGHWSCLA”, the “soluble on expression in E. coli” value is “not soluble”.

Turning to “MIHSSVKRWGNSPAVRIPATLMQALNLNIDDEVKIDLVDGKLIIEPVRKEPVFTLAELVNDITPENLHENIDWGEPKDKEVW”, the “soluble on expression in E. coli” value is “soluble”.
